Six molecules from patent US20230322924A1 can be followed below.

Assay [1] concerns the target recombinant human CD3ε (1-27) peptide with a C-terminal Tencon25 fusion (human) (UniProt P07766). Put plainly: ProteOn SPR, mAb captured by anti-human Fc, antigen as analyte.
Assay [2] addresses human CD3 on human T cells (human) (UniProt P07766). The experiment in a line: competition with AF488 SP-34 tracer on human pan T cells, flow cytometry.
Assay [3] shares this target. The experiment in a line: Kd = IC50/(1+[T]/KdT) from competition with AF488 SP-34 on human pan T cells.

Sequence of human CD3 on human T cells (human) (P07766 23-207 limits assumed): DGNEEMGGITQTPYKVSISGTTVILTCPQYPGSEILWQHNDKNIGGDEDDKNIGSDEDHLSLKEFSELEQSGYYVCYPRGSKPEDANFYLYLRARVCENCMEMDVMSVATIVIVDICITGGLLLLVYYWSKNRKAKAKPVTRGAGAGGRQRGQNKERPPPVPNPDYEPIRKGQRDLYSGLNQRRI
Sequence of recombinant human CD3ε (1-27) peptide with a C-terminal Tencon25 fusion (human) (P07766 22-48): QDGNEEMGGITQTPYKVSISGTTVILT

B1: CD3B312 (antibody, V domains shown)
VH: QVQLQQSGPRLVRPSQTLSLTCAISGDSVFNNNAAWSWIRQSPSRGLEWLGRTYYRSKWLYDYAVSVKSRITVNPDTSRNQFTLQLNSVTPEDTALYYCARGYSSSFDYWGQGTLVTVSS
VL: QSALTQPASVSGSPGQSITISCTGTSSNIGTYKFVSWYQQHPDKAPKVLLYEVSKRPSGVSSRFSGSKSGNTASLTISGLQAEDQADYHCCSYAGSGTLLFGGGTKLTVL
Regarding B1, in assay [1], the Kd turned out to be 20.6 nM, the koff stood at 0.00187 s⁻¹ and the kon was 90800 M⁻¹ s⁻¹.

B2: BLW-2E6 variant CD3H219/CD3L160 (LC C91L) (antibody, V domains shown)
VH: QVQLQQSGPRLVRPSQTLSLTCAISGDSVFNNNAAWSWIRQSPSRGLEWLGRTYYRSKWLYDYAVSVKSRITVNPDTSRNQFTLQLNSVTPEDTALYYCARGYSSSFDYWGQGTLVTVSS
VL: QSALTQPASVSGSPGQSITISCTGTSSNIGTYKFVSWYQQHPDKAPKVLLYEVSKRPSGVSSRFSGSKSGNTASLTISGLQAEDQADYHCLSYAGSGTLLFGGGTKLTVL
Take B2: in assay [1], the Kd stood at 41.1 nM, the koff is 0.00405 s⁻¹ and the kon turned out to be 98400 M⁻¹ s⁻¹.

B3: CD3B376 (antibody, human IgG4 S228P, lambda, F234A L235A, V domains shown)
VH: QVQLQQSGPRLVRPSQTLSLTCAISGDSVFNNNAAWSWIRQSPSRGLEWLGRTYYRSKWLYDYAVSVKSRITVNPDTSRNQFTLQLNSVTPEDTALYYCARGYSSSFDYWGQGTLVTVSS
VL: QSALTQPASVSGSPGQSITISCTGTSSNIGTYKFVSWYQQHPDKAPKVLLYEVSKRPSGVSSRFSGSKSGNTASLTISGLQAEDQADYHCVSYAGSGTLLFGGGTKLTVLG
B3: in assay [1], the equilibrium dissociation constant (Kd) is 23.3 nM, the koff turned out to be 0.00237 s⁻¹ and the on-rate constant (kon) came to 102000 M⁻¹ s⁻¹.

B4: BLW-2E6 variant CD3H219/CD3L137 (antibody, V domains shown)
VH: QVQLQQSGPRLVRPSQTLSLTCAISGDSVFNNNAAWSWIRQSPSRGLEWLGRTYYRSKWLYDYAVSVKSRITVNPDTSRNQFTLQLNSVTPEDTALYYCARGYSSSFDYWGQGTLVTVSS
VL: QSALTQPASVSGSPGQSITISCTGTSSNIGTYKFVSWYQQHPGKAPKVMIYEVSKRPSGVSNRFSGSKSGNTASLTISGLQAEDEADYYCCSYAGSGTLLFGGGTKLTVL
B4: in assay [1], the dissociation constant Kd was 32.9 nM, the koff was found to be 0.00202 s⁻¹ and the kon came to 61300 M⁻¹ s⁻¹.

B5: monovalent CD3B376 construct (bispecific antibody, part only; not given: unnamed target arm, not shown: another chain or arm of the molecule; small tags and cut ends)
heavy: QVQLQQSGPRLVRPSQTLSLTCAISGDSVFNNNAAWSWIRQSPSRGLEWLGRTYYRSKWLYDYAVSVKSRITVNPDTSRNQFTLQLNSVTPEDTALYYCARGYSSSFDYWGQGTLVTVSSASTKGPSVFPLAPCSRSTSESTAALGCLVKDYFPEPVTVSWNSGALTSGVHTFPAVLQSSGLYSLSSVVTVPSSSLGTKTYTCNVDHKPSNTKVDKRVESKYGPPCPPCPAPEAAGGPSVFLFPPKPKDTLMISRTPEVTCVVVDVSQEDPEVQFNWYVDGVEVHNAKTKPREEQFNSTYRVVSVLTVLHQDWLNGKEYKCKVSNKGLPSSIEKTISKAKGQPREPQVYTLPPSQEEMTKNQVSLTCLVKGFYPSDIAVEWESNGQPENNYKTTPPVLDSDGSFLLYSKLTVDKSRWQEGNVFSCSVMHEALHNHYTQKSLSLSLGK
light: QSALTQPASVSGSPGQSITISCTGTSSNIGTYKFVSWYQQHPDKAPKVLLYEVSKRPSGVSSRFSGSKSGNTASLTISGLQAEDQADYHCVSYAGSGTLLFGGGTKLTVLGQPKAAPSVTLFPPSSEELQANKATLVCLISDFYPGAVTVAWKADSSPVKAGVETTTPSKQSNNKYAASSYLSLTPEQWKSHRSYSCQVTHEGSTVEKTVAPTECS
The molecule B5 displayed an IC50 in assay [2] of 409 nM. For the same molecule, the equilibrium dissociation constant (Kd) in assay [3] was determined as 103 nM.

B6: monovalent CD3B450 construct (bispecific antibody, part only; not given: unnamed target arm, not shown: another chain or arm of the molecule; small tags and cut ends)
heavy: QVQLQQSGPGLVKPSQTLSLTCAISGDSVFNNNAAWSWIRQSPSRGLEWLGRTYYRSKWLYDYAVSVKSRITINPDTSKNQFSLQLNSVTPEDTAVYYCARGYSSSFDYWGQGTLVTVSSASTKGPSVFPLAPCSRSTSESTAALGCLVKDYFPEPVTVSWNSGALTSGVHTFPAVLQSSGLYSLSSVVTVPSSSLGTKTYTCNVDHKPSNTKVDKRVESKYGPPCPPCPAPEAAGGPSVFLFPPKPKDTLMISRTPEVTCVVVDVSQEDPEVQFNWYVDGVEVHNAKTKPREEQFNSTYRVVSVLTVLHQDWLNGKEYKCKVSNKGLPSSIEKTISKAKGQPREPQVYTLPPSQEEMTKNQVSLTCLVKGFYPSDIAVEWESNGQPENNYKTTPPVLDSDGSFLLYSKLTVDKSRWQEGNVFSCSVMHEALHNHYTQKSLSLSLGK
light: QSALTQPASVSGSPGQSITISCTGTSSNIGTYKFVSWYQQHPGKAPKVMIYEVSKRPSGVSNRFSGSKSGNTASLTISGLQAEDEADYYCVSYAGSGTLLFGGGTKLTVLGQPKAAPSVTLFPPSSEELQANKATLVCLISDFYPGAVTVAWKADSSPVKAGVETTTPSKQSNNKYAASSYLSLTPEQWKSHRSYSCQVTHEGSTVEKTVAPTECS
In turn, B6 registered an IC50 in assay [2] of 1010 nM. The same molecule displayed a Kd in assay [3] of 254 nM.

Broadly, the Kd is the concentration at which binding is half-saturated. By koff is commonly meant the first-order rate constant of dissociation. The kon is a measure of how fast the partners come together. The IC50 is the concentration that inhibits the measured activity by half. A higher IC50 goes with weaker potency in that assay.
